Assay [1] addresses T1, mouse TARM protein, isoform m1, expressed on B300.19 cells (mouse, UniProt B6A8R8 17-288).
T1 construct: In the co-immunoprecipitation the cells were solubilized in 1% digitonin; also called mTARM; mTARM-expressing cells
T1 sequence: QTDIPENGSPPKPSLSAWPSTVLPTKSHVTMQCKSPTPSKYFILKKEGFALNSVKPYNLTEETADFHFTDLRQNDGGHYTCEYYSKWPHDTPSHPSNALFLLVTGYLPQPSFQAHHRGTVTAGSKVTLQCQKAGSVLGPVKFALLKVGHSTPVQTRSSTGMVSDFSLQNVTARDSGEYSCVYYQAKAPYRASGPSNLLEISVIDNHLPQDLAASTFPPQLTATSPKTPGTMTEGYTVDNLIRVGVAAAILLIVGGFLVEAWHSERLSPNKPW
The experiment in a line: co-immunoprecipitation from B300.19 transfectants (1% digitonin lysate): anti-Flag IP, immunoblot with anti-mTARM #6. The procedure:
B300.19 transfectants were solubilized in a cell lysis buffer containing 1% digitonin (1% digtonin/50 mM Tris-HCl (pH 7.5)/150 mM NaCl/5 mM NaF/1 mM orthovanadate/Complete™ (Roche)). Immunoprecipitation was carried out using an anti-Flag antibody, and immunoblot analysis was then carried out using anti-mTARM antibody #6.
(In general: In western blotting, separated proteins are transferred to a membrane and probed.)

Assay [2] deals with AP protein used as a negative control (human, UniProt P05187 23-511). The experiment in a line: FACS of AP protein on mTARM-L-expressing B300.19 cells, detected with anti-PLAP antibody.
The target of assay [3] is T2, CD54 endogenous in bone marrow-derived mature dendritic cells (mouse, UniProt P13597 28-537).
T2 construct: Control membrane protein in the co-immunoprecipitation; also called another cell membrane protein CD54
Put plainly: co-immunoprecipitation from mature dendritic cells (1% digitonin lysate): anti-CD54 IP, immunoblot with anti-FcRγ chain antibody. The protocol:
Moreover, bone marrow-derived mature dendritic cells were solubilized in a cell lysis buffer containing 1% digitonin. Immunoprecipitation was carried out using rat IgG as a negative control, anti-mTARM antibody #21, an anti-CD54 antibody and an anti-FcRγ chain antibody, and immunoblot analysis was then carried out using an anti-FcRγ chain antibody.

AP protein used as a negative control, sequence (P05187 23-511): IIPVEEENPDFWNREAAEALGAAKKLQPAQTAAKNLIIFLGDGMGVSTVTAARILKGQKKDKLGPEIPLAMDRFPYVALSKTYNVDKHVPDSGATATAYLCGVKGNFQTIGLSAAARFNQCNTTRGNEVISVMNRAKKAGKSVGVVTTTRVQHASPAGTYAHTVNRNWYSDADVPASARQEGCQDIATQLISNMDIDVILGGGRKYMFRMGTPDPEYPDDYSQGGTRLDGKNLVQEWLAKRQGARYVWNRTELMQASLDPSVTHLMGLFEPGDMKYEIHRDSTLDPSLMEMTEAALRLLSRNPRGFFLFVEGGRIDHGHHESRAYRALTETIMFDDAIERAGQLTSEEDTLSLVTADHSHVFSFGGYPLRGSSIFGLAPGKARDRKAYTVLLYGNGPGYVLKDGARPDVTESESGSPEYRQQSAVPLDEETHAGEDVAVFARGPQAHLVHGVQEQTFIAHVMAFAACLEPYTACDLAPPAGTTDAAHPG
T2 sequence (P13597 28-537 limits assumed): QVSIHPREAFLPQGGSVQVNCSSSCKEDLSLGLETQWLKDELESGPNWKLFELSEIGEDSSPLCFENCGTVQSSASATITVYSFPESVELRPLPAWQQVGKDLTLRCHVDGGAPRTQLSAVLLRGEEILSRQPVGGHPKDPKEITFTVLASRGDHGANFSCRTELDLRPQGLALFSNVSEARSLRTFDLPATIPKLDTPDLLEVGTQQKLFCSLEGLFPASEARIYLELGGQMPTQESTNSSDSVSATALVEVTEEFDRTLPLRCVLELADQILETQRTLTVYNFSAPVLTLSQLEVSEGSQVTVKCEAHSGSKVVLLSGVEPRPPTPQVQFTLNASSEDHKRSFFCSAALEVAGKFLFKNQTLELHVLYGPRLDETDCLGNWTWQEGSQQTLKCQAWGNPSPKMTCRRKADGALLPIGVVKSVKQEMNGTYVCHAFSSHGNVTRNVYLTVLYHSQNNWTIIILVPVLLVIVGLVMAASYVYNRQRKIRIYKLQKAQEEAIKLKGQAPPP

B1: Flag tagged DAP12 expressed in B300.19 transfectants (other, UniProt O54885 22-114, looked up)
chain: LSPVQAQSDTFPRCDCSSVSPGVLAGIVLGDLVLTLLIALAVYSLGRLVSRGQGTAEGTRKQHIAETESPYQELQGQRPEVYSDLNTQRQYYR
notes: GenBank NM-011662 is printed; The fragment limits are set only by the primers; not shown: N-terminal Flag tag from vector pMXII IRES-Puro
Consider B1, for which the binding result in assay [1] is “no binding”.

B2: mouse TARM-L (TARM ligand) expressed on B300.19 cells (ligand)
chain: LEISADAHVRGYVGEKIKLKCTFKSSSDVTDKLTIDWTYRPPSSSRTESIFHYQSFQYPTTAGTFRDRISWAGNVYKGDASISISNPTLKDNGTFSCAVKNPPDVYHNIPLTELTVTERGFGTMLSSVALLSILVFVPSAVVVILLLVRMGRKATGVQKRSRSGYKKSSIEVSDDTDQEDSNDCMTRLCVRCAECLDSDYEEEAY
notes: also called mTARM-L; mTARM-L candidate
With B2, the binding result in assay [2] is given as “no binding (tested: 30 µg/ml (method of Example 5))”.

B3: Flag tagged DAP10 expressed in B300.19 transfectants (other, UniProt Q9QUJ0 18-79, looked up)
chain: SQTSAGSCSGCGTLSLPLLAGLVAADAVMSLLIVGVVFVCMRPHGRPAQEDGRVYINMPGRG
notes: GenBank AF072846 is printed; The fragment limits are set only by the primers; not shown: N-terminal Flag tag from vector pMXII IRES-Puro
Regarding B3, the binding result in assay [1] is on record as “no binding”.

B4: FcRγ chain endogenous in bone marrow-derived mature dendritic cells (other, mouse, UniProt P20491 19-86, looked up)
chain: LGEPQLCYILDAVLFLYGIVLTLLYCRLKIQVRKAAIASREKADAVYTGLNTRSQETYETLKHEKPPQ
notes: Native protein from lysate of mouse dendritic cells
As to B4, in assay [3], the binding result is given as “no binding”.

(Values after patent publication US20090181025A1 (published 2009).)
